Measured values as given in the DeepSol protein solubility set.

Assay: soluble on expression in E. coli; label from the status in PepcDB or PDB records

Sequence	soluble on expression in E. coli
MIGYLFGNRVLVDDKELPLIEAYYLLDKGELEVYEDDKKLSKEEFLKKCLTYDERFLIRYKAYKELRDKGYTLGTALKFGADFRVYDIGVIPKKGKRSEREHSKWVLYPVSKDETFDFYEFASKNRVAHSTRKKMLMGIVSDKIEFIEVSWKKP	soluble
MGSDKIHHHHHHMNDINLLPLTSAYLDLILEWRNNPEVRRNMYTSHVISKAEHYAWFKKLESDNTKQCFIFVLNGVPSGFISFVDINLNSKSATWAFYSGNTSVRGIGSLMEVSALNYAFSTLGLHKLSCEVLEFNNMVVRFHEKYGFHVEGVFKKHHFSEGEYWDIYRLAIFNEEWARCKLEINLKKQSISPGSSYRENVFFTNENIIGFSALSGDCNQIHLNKQYAIKNGFDNNLVHGFLVGSVFSKVFGTRFPGDGCIYISQSLSFLSPVYPDDLLEASFVVLSKIGRKLVVETSITNLHSNKKVIDGVAELLISMDSQIGYLNQYL	not soluble
MLWLALGPFPAMENQVLVIRIKIPNSGAVDWTVHSGPQLLFRDVLDVIGQVLPEATTTAFEYEDEDGDRITVRSDEEMKAMLSYYYSTVMEQQVNGQLIEPLQIFPRACKPPGERNIHGLKVNTRAGPSQHSSPAVSDSLPSNSLKKSSAELKKILANGQMNEQDIRYRDTLGHGNGGTVYKAYHVPSGKILAVKVILLDITLELQKQIMSELEILYKCDSSYIIGFYGAFFVENRISICTEFMDGGSLDVYRKMPEHVLGRIAVAVVKGLTYLWSLKILHRDVKPSNMLVNTRGQVKLCDFGVSTQLVNSIAKTYVGTNAYMAPERISGEQYGIHSDVWSLGISFMELALGRFPYPQIQKNQGSLMPLQLLQCIVDEDSPVLPVGEFSEPFVHFITQCMRKQPKERPAPEELMGHPFIVQFNDGNAAVVSMWVCRALEERRSQQGPP	soluble
MSLIAIYVRVSTEEQAIKGSSIDSQIEACIKKAGTKDVLKYADEGFSGELLERPALNRLREDASKGLISQVICYDPDRLSRKLMNQLIIDDELRKRNIPLIFVNGEYANSPEGQLFFAMRGAISEFEKAKIKERTSSGRLQKMKKGMIIKDSKLYGYKFVKEKRTLEILEEEAKIIRMIFNYFTDHKSPFFGRVNGIALHLTQMGVKTKKGAKVWHRQVVRQILMNSSYKGEHRQYKYDTEGSYVSKQAGNKSIIKIRPEEEQITVTIPAIVPAEQWDYAQELLGQSKREGHHHHHH	soluble
MGHHHHHHSHMALLVRVLRNQTSISQWVPVCSRLIPVSPTQGQGDRALSRTSQWPQMSQSQACGGSEQIPGIDIQLNRKYHTTRKLSTTKDSPQPVEEKVGAFTKIIEAMGFTGPLKYSKWKIKIAALRMYTSCVEKTDFEEFLLRCQMPDTFNSWFLITLLHVWMCLVRMKQEGRSGKYMCRIIVHFMWEDVQQRGRVMGVNPYILKKNMILMTNHFYAAILGYDEGILSDDHGLAAALWRTFFNRKCEDPRHLELLVEYVRKQIQYLDSMNGEDLLLTGEVSWRPLVEKNPQSILKPHSPTYNDEGL	not soluble
MEHTKKFKSLNLHGFDRSTEDYGKRPFVLTAKLLEDQKKAIYGCAFNQYAGIDEEQAVATVGGSFLHMYSVPIDINNIELQWSCNFPTDKSSKVEREESLFTVTWCYDTYEAENDRNPFKVVTGGTLGHIYVIDYVSRKLSNRLRSVGWEINDIRTCPANSNLIVCASSDQSIRIHHIRNEACLIVIGGLECHAGTILSVDWSTDGDFILSCGFDHQLMEWDLSVKQVKEHLERACKALHQDKINVLTQSQDIPYVSKGTMRKSAVSRNIPDKEEDQLLELHRELIPRPSCLLPIYTPSSVSTDMHSDYVDCIRFLIGTNYALSKGCGNEKAIHFWRFGPPKGEVENRIHGNVLRPKSCTTKFRTMNVPSGSAWFIKFAVDPRRRWLVCGGAGGSVMFFDLRNNEETNPTHTCSVGSRTVRQASFSTCGRFLVLVTDEGFVCRFDRVSASVDAKDLFLMSSPTSSKDYSSPKHSFMLTVDSNLQSDKKKTFLNVQSSSSAGSTKHCQIPMSKDEYFETRGKLDSVDVIDQFRQRQQ	not soluble
LLESRELVEKIVSILEEKKAKDLNIIDIREISILADYFVICSGTSTTHIKTLADEVEEKMLEAGIELLHKEGYNSARWILLDYGEVVVHIFHEEDRQFYNLERLWADGVMKHRQ	soluble
